# Experimental data taken from doi:10.1101/2024.10.21.619389 (bioRxiv, 2024).
# B1: light-dependent protochlorophyllide oxidoreductase (LPOR) isoform AtPORB (enzyme, Arabidopsis thaliana)
# chain: QTAATSSPTVTKSVDGKKTLRKGNVVVTGASSGLGLATAKALAETGKWNVIMACRDFLKAERAAKSVGMPKDSYTVMHLDLASLDSVRQFVDNFRRTETPLDVLVCNAAVYFPTAKEPTYSAEGFELSVATNHLGHFLLARLLLDDLKKSDYPSKRLIIVGSITGNTNTLAGNVPPKANLGDLRGLAGGLNGLNSSAMIDGGDFDGAKAYKDSKVCNMLTMQEFHRRFHEETGVTFASLYPGCIASTGLFREHIPLFRALFPPFQKYITKGYVSETESGKRLAQVVSDPSLTKSGVYWSWNNASASFENQLSEEASDVEKARKVWEISEKLVGLA
# Molecular target: the molecule itself
# Assay: negative-stain transmission electron microscopy
protein,measurement,value
B1,binding result,binds
